± gives the standard deviation of the averaged measurements.
test system: ATP; test: switch fluorescence ratio, 500 uM ATP over buffer (Cy3 cluster intensity, sum of 5 cycles each) (fold (ratio)); higher = stronger signal-on switching upon ATP binding; sequences stand for … in TCGTCGGCAGCGTCAGATGTGTATAAGAGACAGTTTTTTTTTTTTTTTTTTTTTTTTT…TC; details: aptamer strand: ATP DNA aptamer (quencher-CACCTGGGGGAGTATTGCGGAGGAAGG + anchor), 100 nM annealed; ATP concentration: 500 uM
Outline: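 Exposure to 500 uM ATP lasted 15 min at 22 °C before imaging, and a selection-buffer image was taken beforehand, for Cy3-labelled switching-strand clusters on a modified Illumina MiSeq flow-cell annealed to 100 nM quencher-labelled ATP aptamer. Five buffer/ATP cycles were run with NaOH stripping and re-annealing between them. The fluorescence ratio per cluster is summed target-cycle over summed buffer-cycle Cy3 intensity, averaged per switch-domain sequence. Clusters outside 100-1000 RFU were excluded.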

Sequence | switch fluorescence ratio
GGGCTATAGA | 0.9984 ± 0.0095
GGGCTATAGC | 0.997 ± 0.056
GGGCTATGCT | 1 ± 0.037
GGGCTCATCA | 0.998 ± 0.041
GGGCTGGTTC | 1.03 ± 0.017
GGGCTGTAAG | 0.997 ± 0.04
GGGCTGTGTG | 1.02 ± 0.035
GGGCTTAGAG | 1.012 ± 0.007
GGGCTTGCAA | 1.04 ± 0.016
GGGCTTTCTC | 1.09 ± 0.055
GGGCTTTTGG | 0.9868 ± 0.0012
GGGCTTTTTT | 0.98 ± 0.018
GGGGAAAAAT | 1.01 ± 0.032
GGGGAAAACA | 1 ± 0.014
GGGGAAAGGC | 1.02 ± 0.018
GGGGAAAGTA | 1.03 ± 0.03
GGGGAAATAT | 0.981 ± 0.024
GGGGAACTGG | 1.01 ± 0.023
GGGGAAGAAT | 0.9784 ± 0.0021
GGGGAAGAGA | 0.96964 ± 5.5e-05
GGGGAAGAGT | 0.996 ± 0.052
GGGGAAGATA | 0.9862 ± 0.0025
GGGGAAGGTG | 1.79 ± 1
GGGGAAGTAG | 0.994 ± 0.018
GGGGAATCGC | 0.97 ± 0.055

Sequence | switch fluorescence ratio
GGGGAATGAA | 1.019 ± 0.009
GGGGAATGGG | 1.01 ± 0.028
GGGGAATGGT | 1.01 ± 0.074
GGGGAATGTG | 0.963 ± 0.013
GGGGAATTAG | 0.973 ± 0.008
GGGGACAGTT | 1.02 ± 0.017
GGGGACCGGT | 1.054 ± 0.0023
GGGGACGGGA | 0.989 ± 0.024
GGGGACGGTA | 1.03 ± 0.027
GGGGACGTCA | 0.998 ± 0.012
GGGGACGTGG | 0.965 ± 0.011
GGGGAGAAGG | 0.981 ± 0.031
GGGGAGCGGC | 1.02 ± 0.0027
GGGGAGGAAT | 0.971 ± 0.024
GGGGAGGACT | 1 ± 0.021
GGGGAGGAGG | 0.986 ± 0.0087
GGGGAGGAGT | 1.01 ± 0.026
GGGGAGGATT | 0.986 ± 0.027
GGGGAGGGTA | 1.03 ± 0.015
GGGGAGTAGC | 0.999 ± 0.03
GGGGAGTCGG | 1.01 ± 0.047
GGGGAGTTCG | 0.983 ± 0.019
GGGGATAAGG | 0.984 ± 0.042
GGGGATACGG | 1.026 ± 0.0047
GGGGATAGAT | 0.982 ± 0.027

Sequence | switch fluorescence ratio
GGGGATAGT | 1 ± 0.015
GGGGATGCGG | 1.02 ± 0.021
GGGGATGCTC | 1.03 ± 0.018
GGGGATGGGT | 0.999 ± 0.045
GGGGATGTGA | 0.967 ± 0.037
GGGGATGTTG | 0.996 ± 0.013
GGGGATTATT | 0.991 ± 0.036
GGGGATTCT | 0.9936 ± 0.0094
GGGGCACGGC | 1.01 ± 0.03
GGGGCAGCTG | 1.06 ± 0.08
GGGGCAGGAC | 1.54 ± 0.7
GGGGCAGTTA | 1 ± 0.025
GGGGCATCTT | 1.01 ± 0.046
GGGGCCAAGG | 0.981 ± 0.017
GGGGCCACGC | 1.01 ± 0.034
GGGGCCCGAA | 0.981 ± 0.035
GGGGCCGAGG | 0.9573 ± 0.0075
GGGGCCGATA | 1.04 ± 0.079
GGGGCCTCGG | 0.997 ± 0.019
GGGGCGCGCC | 1.022 ± 0.0077
GGGGCGGAGT | 0.989 ± 0.055
GGGGCGGCGG | 0.962 ± 0.066
GGGGCGGGAA | 0.982 ± 0.05
GGGGCGGGAG | 1.03 ± 0.042
GGGGCGTATG | 0.993 ± 0.02

Sequence | switch fluorescence ratio
GGGGCGTGAG | 0.998 ± 0.034
GGGGCTCATA | 0.9876 ± 0.0072
GGGGCTGCGC | 1.05 ± 0.1
GGGGCTGGGA | 0.986 ± 0.027
GGGGCTGGTA | 1.003 ± 0.0043
GGGGCTGGTT | 0.99 ± 0.024
GGGGCTTCTG | 1.03 ± 0.019
GGGGCTTGGA | 1 ± 0.017
GGGGCTTGTA | 1 ± 0.016
GGGGCTTTAT | 0.992 ± 0.013
GGGGCTTTCG | 1 ± 0.072
GGGGGAAAG | 1 ± 0.025
GGGGGAACAG | 0.991 ± 0.011
GGGGGACCCA | 0.982 ± 0.06
GGGGGACTAA | 0.996 ± 0.042
GGGGGAGACT | 1 ± 0.051
GGGGGAGAG | 0.979 ± 0.034
GGGGGAGGTT | 0.977 ± 0.029
GGGGGATAGC | 0.991 ± 0.023
GGGGGATAGG | 1 ± 0.025
GGGGGATCAG | 0.992 ± 0.045
GGGGGATGCC | 1.15 ± 0.22
GGGGGATGGC | 0.975 ± 0.064
GGGGGATGGT | 0.978 ± 0.035
GGGGGATTAC | 1.06 ± 0.083

Sequence | switch fluorescence ratio
GGGGGATTGA | 1.0228 ± 0.00054
GGGGGATTGT | 1.02 ± 0.043
GGGGGATTTA | 0.992 ± 0.022
GGGGGCAAGC | 1.25 ± 0.35
GGGGGCAATG | 1.13 ± 0.064
GGGGGCACGA | 1.07 ± 0.021
GGGGGCAGCC | 1.05 ± 0.083
GGGGGCAGGA | 0.987 ± 0.017
GGGGGCATAT | 1.02 ± 0.026
GGGGGCATGA | 0.966 ± 0.015
GGGGGCCGTC | 1.01 ± 0.09
GGGGGCCTTT | 0.995 ± 0.02
GGGGGCGAAT | 1.01 ± 0.011
GGGGGCGCAA | 1.129 ± 0.011
GGGGGCGGGG | 1.01 ± 0.03
GGGGGCGGTC | 0.997 ± 0.023
GGGGGCGTCA | 1.02 ± 0.017
GGGGGCTAGT | 0.991 ± 0.056
GGGGGCTGAA | 0.985 ± 0.027
GGGGGCTTAC | 1.01 ± 0.021
GGGGGGAAAA | 0.986 ± 0.025
GGGGGGAACA | 1.01 ± 0.029
GGGGGGAAGG | 1.01 ± 0.03
GGGGGGACAG | 1 ± 0.037
GGGGGGACCT | 1.06 ± 0.043

Sequence | switch fluorescence ratio
GGGGGGACTG | 1.06 ± 0.077
GGGGGGAGAA | 1.01 ± 0.039
GGGGGGAGAT | 1.04 ± 0.077
GGGGGGAGCG | 1 ± 0.021
GGGGGGATAA | 1.08 ± 0.21
GGGGGGATAT | 1.05 ± 0.097
GGGGGGATTT | 1.02 ± 0.063
GGGGGGCCAT | 1.01 ± 0.025
GGGGGGCGAC | 1.02 ± 0.019
GGGGGGCGTG | 0.993 ± 0.027
GGGGGGCTTG | 1.02 ± 0.043
GGGGGGGAAA | 0.99 ± 0.035
GGGGGGGACG | 0.962 ± 0.055
GGGGGGGAGA | 1.02 ± 0.029
GGGGGGGCGC | 1.02 ± 0.035
GGGGGGGGC | 0.989 ± 0.061
GGGGGGGGCA | 0.985 ± 0.024
GGGGGGGGCT | 1 ± 0.045
GGGGGGGGGT | 1.01 ± 0.038
GGGGGGGTGG | 1 ± 0.033
GGGGGGGTTA | 0.992 ± 0.025
GGGGGGTCCA | 1.01 ± 0.023
GGGGGGTCGA | 1 ± 0.021
GGGGGGTCTA | 1.02 ± 0.024
GGGGGGTGTG | 0.986 ± 0.025

Sequence | switch fluorescence ratio
GGGGGGTTAT | 0.993 ± 0.026
GGGGGTAACT | 1 ± 0.034
GGGGGTACGA | 1.01 ± 0.052
GGGGGTAGAC | 1.01 ± 0.026
GGGGGTAGCA | 1.05 ± 0.077
GGGGGTAGCG | 1.02 ± 0.028
GGGGGTAGGG | 1.03 ± 0.073
GGGGGTAGTT | 1 ± 0.032
GGGGGTATGA | 1.02 ± 0.022
GGGGGTCATT | 0.9511 ± 0.0024
GGGGGTCGC | 1 ± 0.065
GGGGGTCGGA | 1.03 ± 0.043
GGGGGTGCGA | 1.01 ± 0.026
GGGGGTGCTC | 1.01 ± 0.023
GGGGGTGGAG | 1 ± 0.041
GGGGGTGGCC | 0.952 ± 0.098
GGGGGTGGTA | 0.99 ± 0.045
GGGGGTGGTT | 0.99 ± 0.037
GGGGGTGTTC | 0.991 ± 0.028
GGGGGTGTTG | 1 ± 0.04
GGGGGTTATG | 1.01 ± 0.024
GGGGGTTATT | 0.989 ± 0.051
GGGGGTTCAT | 0.979 ± 0.013
GGGGGTTTTC | 1.01 ± 0.04
GGGGTAAAAT | 1.01 ± 0.035

Sequence | switch fluorescence ratio
GGGGTAAACA | 0.99 ± 0.038
GGGGTAACGG | 0.987 ± 0.036
GGGGTAAGAC | 1.02 ± 0.036
GGGGTAAGCG | 0.978 ± 0.033
GGGGTAAGCT | 0.998 ± 0.023
GGGGTAATGC | 1.34 ± 0.18
GGGGTACCCA | 0.993 ± 0.018
GGGGTAGAAA | 0.969 ± 0.013
GGGGTAGAGT | 0.98 ± 0.017
GGGGTAGATA | 1.01 ± 0.012
GGGGTAGCGC | 0.974 ± 0.018
GGGGTAGCTG | 0.962 ± 0.012
GGGGTAGGCA | 0.9742 ± 0.0033
GGGGTAGTTA | 0.9743 ± 0.0066
GGGGTATACT | 1.021 ± 0.0052
GGGGTATAGG | 0.9746 ± 0.008
GGGGTATATG | 0.995 ± 0.027
GGGGTATGGA | 0.989 ± 0.023
GGGGTATTAG | 0.991 ± 0.03
GGGGTCAAGC | 1.01 ± 0.03
GGGGTCAGCG | 0.974 ± 0.012
GGGGTCAGGA | 1.03 ± 0.029
GGGGTCCGGT | 1.06 ± 0.14
GGGGTCGGCT | 0.974 ± 0.077
GGGGTCGGGG | 1.03 ± 0.041
